Reference: patent US20250152742A1, “COMPOSITIONS AND METHODS FOR NEUROLOGICAL DISEASES” (Trames Bio, Inc., priority 2022, published 2025)
Changes are numbered by the printed parent chain. Numbers in names are those of the source.

System: engineered chimeric receptor SEQ ID NO: 33 and its mutants (human α7-nAChR ligand binding domain / human GlyRα1 ion pore domain) in Lenti-X 293T cells
Experiment: YFP fluorescence quenching anion reporter plate reader assay (percent quench, EC50)
Format: cell-based
Details: for YFP fluorescence quenching using CNL001 (percent quench): receptor named in row; for YFP fluorescence quenching using Varenicline, 3 nM var: ligand Varenicline 3 nM; for YFP fluorescence quenching using Varenicline, 30 nM var: ligand Varenicline 30 nM; for YFP fluorescence quenching using Varenicline, 300 nM var: ligand Varenicline 300 nM; for YFP fluorescence quenching using Varenicline, 500 nM var: ligand Varenicline 500 nM; for YFP fluorescence quenching using Varenicline, 1 uM var: ligand Varenicline 1 uM
Outline: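 Percent quench compares mean YFP signal over the final 10 s with the 15 s baseline before ligand, added in iodide-containing extracellular solution (pH 7.2). Cells were LX293T carrying a YFP anion reporter, transiently transfected with the channel construct; plates were preincubated 30 min at 37 °C.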

[1] = 1 nM CNL001, first column so headed
[2] = 1 nM CNL001, second column so headed
[3] = 1 nM brd (TC-5619/Bradanicline)
[4] = 3 nM brd (TC-5619/Bradanicline)
[5] = 10 nM CNL001, first column so headed
[6] = 10 nM CNL001, second column so headed
[7] = 10 nM brd (TC-5619/Bradanicline)
[8] = 30 nM brd (TC-5619/Bradanicline)
[9] = 50 nM CNL001, first column so headed
[10] = 50 nM CNL001, second column so headed
[11] = 100 nM CNL001, first column so headed
[12] = 100 nM CNL001, second column so headed
[13] = 100 nM brd (TC-5619/Bradanicline)
[14] = 300 nM brd (TC-5619/Bradanicline)
[15] = 1 uM CNL001, first column so headed
[16] = 1 uM CNL001, second column so headed

B1: CODA1055: engineered receptor: R101W, Y115E, Y210W in SEQ ID NO: 33 (protein)
chain: MRCSPGGVWLALAASLLHVSLQGEFQRKLYKELVKNYNPLERPVANDSQPLTVYFSLSLLQIMDVDEKNQVLTTNIWLQMSWTDHYLQWNVSEYPGVKTVWFPDGQIWKPDILLENSADERFDATFHTNVLVNSSGHCQYLPPGIFKSSCPMDLKNFPMDVQTCKLKFGSWSYGGWSLDLQMQEADISGYIPNGEWDLVGIPGKRSERFWECCKEPYPDVTFTVTMRRRMGYYLIQMYIPSLLIVILSWISFWINMDAAPARVGLGITTVLTMTTQSSGSRASLPKVSYVKAIDIWMAVCLLFVFSALLEYAAVNFVSRQHKELLRFRRKRRHHKSPMLNLFQEDEAGEGRFNFSAYGMGPACLQAKDGISVKGANNSNTTNPPPAPSKSPEEMRKLFIQRAKKIDKISRIGFPMAFLIFNMFYWIIYKIVRREDVHNQ
modifications: synthetic sequence of chimeric LGIC
[1]
  YFP fluorescence quenching using CNL001 (percent quench): −12.889%
[2]
  YFP fluorescence quenching using CNL001 (percent quench): −13.295%
[3]
  YFP fluorescence quenching using TC-5619/Bradanicline (percent quench): −8.113%
[4]
  YFP fluorescence quenching using TC-5619/Bradanicline (percent quench): −11.136%
[5]
  YFP fluorescence quenching using CNL001 (percent quench): −10.401%
[6]
  YFP fluorescence quenching using CNL001 (percent quench): −7.981%
[7]
  YFP fluorescence quenching using TC-5619/Bradanicline (percent quench): 38.755%
30 nM TC-6683
  YFP fluorescence quenching using TC-6683 (percent quench): −30.056%
[8]
  YFP fluorescence quenching using TC-5619/Bradanicline (percent quench): 39.111%
[9]
  YFP fluorescence quenching using CNL001 (percent quench): −1.972%
[10]
  YFP fluorescence quenching using CNL001 (percent quench): −1.661%
50 nM abt (ABT-126)
  YFP fluorescence quenching using ABT-126 (percent quench): −21.36%
[11]
  YFP fluorescence quenching using CNL001 (percent quench): 0.277%
[12]
  YFP fluorescence quenching using CNL001 (percent quench): 4.325%
100 nM abt (ABT-126)
  YFP fluorescence quenching using ABT-126 (percent quench): −22.28%
[13]
  YFP fluorescence quenching using TC-5619/Bradanicline (percent quench): 61.378%
300 nM TC-6683
  YFP fluorescence quenching using TC-6683 (percent quench): −30.801%
300 nM abt (ABT-126)
  YFP fluorescence quenching using ABT-126 (percent quench): −14.63%
[14]
  YFP fluorescence quenching using TC-5619/Bradanicline (percent quench): 52.398%
[15]
  YFP fluorescence quenching using CNL001 (percent quench): 2.88%
[16]
  YFP fluorescence quenching using CNL001 (percent quench): 3.259%
1 uM abt (ABT-126)
  YFP fluorescence quenching using ABT-126 (percent quench): −7.34%
3 uM TC-6683
  YFP fluorescence quenching using TC-6683 (percent quench): −25.558%
30 uM TC-6683
  YFP fluorescence quenching using TC-6683 (percent quench): −18.295%
100 uM TC-6683
  YFP fluorescence quenching using TC-6683 (percent quench): −17.554%
100 uM ach (acetylcholine)
  YFP fluorescence quenching (percent quench): −15.63%
300 uM ach (acetylcholine)
  YFP fluorescence quenching (percent quench): −12.05%
500 uM ach (acetylcholine)
  YFP fluorescence quenching (percent quench): −12.87%
1 mM ach (acetylcholine)
  YFP fluorescence quenching (percent quench): −11.55%
3 mM ach (acetylcholine)
  YFP fluorescence quenching (percent quench): 12.68%
10 mM ach (acetylcholine)
  YFP fluorescence quenching (percent quench): 37.58%
First column
  YFP fluorescence quenching using Varenicline, 3 nM var: 0.468
  YFP fluorescence quenching using Varenicline, 30 nM var: −15.532
  YFP fluorescence quenching using Varenicline, 300 nM var: −17.027
  YFP fluorescence quenching using Varenicline, 500 nM var: −13.343
  YFP fluorescence quenching using Varenicline, 1 uM var: −6.604
Second column
  YFP fluorescence quenching using Varenicline, 3 nM var: −10.015
  YFP fluorescence quenching using Varenicline, 30 nM var: −14.462
  YFP fluorescence quenching using Varenicline, 300 nM var: −15.59
  YFP fluorescence quenching using Varenicline, 500 nM var: −10.702
  YFP fluorescence quenching using Varenicline, 1 uM var: −7.612

B2: CODA1138: engineered receptor: W77F, R101F, L131D in SEQ ID NO: 33 (protein)
chain: B1 chain with W77F, W101F, E115Y, L131D, W210Y
modifications: synthetic sequence of chimeric LGIC
[1]
  YFP fluorescence quenching using CNL001 (percent quench): −6.175%
[2]
  YFP fluorescence quenching using CNL001 (percent quench): 5.89%
1 nM CNL002
  YFP fluorescence quenching (percent quench): −2.209%
[5]
  YFP fluorescence quenching using CNL001 (percent quench): −2.032%
[6]
  YFP fluorescence quenching using CNL001 (percent quench): 7.601%
10 nM CNL002
  YFP fluorescence quenching (percent quench): 43.044%
[9]
  YFP fluorescence quenching using CNL001 (percent quench): 9.263%
[10]
  YFP fluorescence quenching using CNL001 (percent quench): 4.423%
50 nM CNL002
  YFP fluorescence quenching (percent quench): 73.418%
50 nM abt (ABT-126)
  YFP fluorescence quenching using ABT-126 (percent quench): −11.71%
[11]
  YFP fluorescence quenching using CNL001 (percent quench): 24%
[12]
  YFP fluorescence quenching using CNL001 (percent quench): 30.448%
100 nM CNL002
  YFP fluorescence quenching (percent quench): 81.66%
100 nM abt (ABT-126)
  YFP fluorescence quenching using ABT-126 (percent quench): −5.13%
300 nM abt (ABT-126)
  YFP fluorescence quenching using ABT-126 (percent quench): 15.09%
[15]
  YFP fluorescence quenching using CNL001 (percent quench): 73.823%
[16]
  YFP fluorescence quenching using CNL001 (percent quench): 73.271%
1 uM CNL002
  YFP fluorescence quenching (percent quench): 81.69%
1 uM abt (ABT-126)
  YFP fluorescence quenching using ABT-126 (percent quench): 56.63%
10 uM abt (ABT-126)
  YFP fluorescence quenching using ABT-126 (percent quench): 75.93%
10 uM ach (acetylcholine)
  YFP fluorescence quenching (percent quench): −12.92%
30 uM ach (acetylcholine)
  YFP fluorescence quenching (percent quench): −15.36%
100 uM ach (acetylcholine)
  YFP fluorescence quenching (percent quench): −19.35%
300 uM ach (acetylcholine)
  YFP fluorescence quenching (percent quench): −14.79%
1 mM ach (acetylcholine)
  YFP fluorescence quenching (percent quench): 37.5%
3 mM ach (acetylcholine)
  YFP fluorescence quenching (percent quench): 61.73%
First column
  YFP fluorescence quenching using Varenicline, 3 nM var: 3.893
  YFP fluorescence quenching using Varenicline, 30 nM var: 0.972
  YFP fluorescence quenching using Varenicline, 300 nM var: 2.282
  YFP fluorescence quenching using Varenicline, 500 nM var: 3.637
  YFP fluorescence quenching using Varenicline, 1 uM var: −1.84
Second column
  YFP fluorescence quenching using Varenicline, 3 nM var: 1.107
  YFP fluorescence quenching using Varenicline, 30 nM var: 0.872
  YFP fluorescence quenching using Varenicline, 300 nM var: −0.288
  YFP fluorescence quenching using Varenicline, 500 nM var: −1.804
  YFP fluorescence quenching using Varenicline, 1 uM var: 6.36

B3: CODA1056: engineered receptor: R101F, Y115E, Y210W in SEQ ID NO: 33 (protein)
chain: B1 chain with W101F
modifications: synthetic sequence of chimeric LGIC
[1]
  YFP fluorescence quenching using CNL001 (percent quench): −8.104%
[2]
  YFP fluorescence quenching using CNL001 (percent quench): −12.153%
[3]
  YFP fluorescence quenching using TC-5619/Bradanicline (percent quench): −7.894%
[4]
  YFP fluorescence quenching using TC-5619/Bradanicline (percent quench): −11.812%
[5]
  YFP fluorescence quenching using CNL001 (percent quench): −10.462%
[6]
  YFP fluorescence quenching using CNL001 (percent quench): −4.735%
[7]
  YFP fluorescence quenching using TC-5619/Bradanicline (percent quench): 36.211%
30 nM TC-6683
  YFP fluorescence quenching using TC-6683 (percent quench): −19.889%
[8]
  YFP fluorescence quenching using TC-5619/Bradanicline (percent quench): 40.624%
[9]
  YFP fluorescence quenching using CNL001 (percent quench): −8.617%
[10]
  YFP fluorescence quenching using CNL001 (percent quench): −1.606%
50 nM abt (ABT-126)
  YFP fluorescence quenching using ABT-126 (percent quench): −20.96%
[11]
  YFP fluorescence quenching using CNL001 (percent quench): −1.243%
[12]
  YFP fluorescence quenching using CNL001 (percent quench): 1.838%
100 nM abt (ABT-126)
  YFP fluorescence quenching using ABT-126 (percent quench): −21.95%
[13]
  YFP fluorescence quenching using TC-5619/Bradanicline (percent quench): 65.869%
300 nM TC-6683
  YFP fluorescence quenching using TC-6683 (percent quench): −22.443%
300 nM abt (ABT-126)
  YFP fluorescence quenching using ABT-126 (percent quench): −10.96%
[14]
  YFP fluorescence quenching using TC-5619/Bradanicline (percent quench): 59.661%
[15]
  YFP fluorescence quenching using CNL001 (percent quench): −0.567%
[16]
  YFP fluorescence quenching using CNL001 (percent quench): 4.663%
1 uM abt (ABT-126)
  YFP fluorescence quenching using ABT-126 (percent quench): 10.79%
3 uM TC-6683
  YFP fluorescence quenching using TC-6683 (percent quench): −12.623%
30 uM TC-6683
  YFP fluorescence quenching using TC-6683 (percent quench): −10.728%
100 uM TC-6683
  YFP fluorescence quenching using TC-6683 (percent quench): −10.959%
100 uM ach (acetylcholine)
  YFP fluorescence quenching (percent quench): −20.55%
300 uM ach (acetylcholine)
  YFP fluorescence quenching (percent quench): −19.32%
500 uM ach (acetylcholine)
  YFP fluorescence quenching (percent quench): −19.75%
1 mM ach (acetylcholine)
  YFP fluorescence quenching (percent quench): −14.08%
3 mM ach (acetylcholine)
  YFP fluorescence quenching (percent quench): 14.07%
10 mM ach (acetylcholine)
  YFP fluorescence quenching (percent quench): 25.7%
